From patent publication US20230212239A1, “INHIBITORS OF CBL AUTOINHIBITION AND RELATED METHODS” (THE HOSPITAL FOR SICK CHILDREN, priority 2020, published 2023)

T1: CBL TKBD-LHR-RING (2-436), unphosphorylated (Homo sapiens, UniProt P22681)
T1 construct: GST (N, cleaved yes); made in house; host or cells: E. coli BL-21
T1 sequence (P22681 2-436): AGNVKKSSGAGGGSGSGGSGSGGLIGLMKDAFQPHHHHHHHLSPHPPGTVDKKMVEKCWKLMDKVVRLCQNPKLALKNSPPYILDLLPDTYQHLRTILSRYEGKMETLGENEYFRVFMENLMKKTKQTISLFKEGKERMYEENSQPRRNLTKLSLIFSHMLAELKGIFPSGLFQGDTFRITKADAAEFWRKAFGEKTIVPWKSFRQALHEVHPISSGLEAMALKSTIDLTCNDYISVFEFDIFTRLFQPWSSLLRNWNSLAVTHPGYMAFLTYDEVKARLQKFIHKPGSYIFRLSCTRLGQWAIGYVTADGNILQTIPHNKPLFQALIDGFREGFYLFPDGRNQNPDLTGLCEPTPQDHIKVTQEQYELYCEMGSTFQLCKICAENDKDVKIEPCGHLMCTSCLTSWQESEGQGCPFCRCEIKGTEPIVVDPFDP

T2: CBL TKBD (Homo sapiens, UniProt P22681)
T2 construct: with CBL (47-357) cloned in frame into MCS2 of the same pETDuet-1 vector; made in house
T2 sequence (P22681 47-357): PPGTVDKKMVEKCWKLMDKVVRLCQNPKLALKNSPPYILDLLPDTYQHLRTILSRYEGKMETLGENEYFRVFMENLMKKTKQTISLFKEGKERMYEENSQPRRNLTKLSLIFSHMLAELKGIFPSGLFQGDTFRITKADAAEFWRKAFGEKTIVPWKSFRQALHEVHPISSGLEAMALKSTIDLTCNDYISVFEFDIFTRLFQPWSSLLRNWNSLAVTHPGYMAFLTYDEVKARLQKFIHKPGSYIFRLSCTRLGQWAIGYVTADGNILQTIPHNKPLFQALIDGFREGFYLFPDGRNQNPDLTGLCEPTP


Legend:
[1] = target: T1, CBL TKBD-LHR-RING (2-436), unphosphorylated; assay: In vitro ubiquitination assay, anti-ubiquitin immunoblot; format: biochemical; details: anti-Ub immunoblot and E3LITE (FIGS. 11A,B, 10B-D)
Source text: Given that binding of SLAP2 and the LHR-RING would be mutually exclusive (FIG. 8C), we reasoned that binding of SLAP2 to CBL could displace the LHR-RING, thereby promoting the catalytically competent conformation. To test this hypothesis, an in vitro ubiquitination assay in which E3 ligase activity is detected by a smear at high molecular weight on an anti-ubiquitin (Ub) immunoblot was employed. […] To further compare and quantify CBL ubiquitin ligase activity, a chemiluminescence based assay which measures the total amount of polyubiquitylated products formed in an in vitro reaction was used. In this assay, production of polyubiquitylated proteins increased upon addition of SLAP2 or pSLAP2 to CBL, compared to CBL alone (FIG. 9C and FIG. 10A).
In vitro ubiquitination reactions were prepared with 20 pmol of CBL or pCBL and 60 pmol of hSLAP2 or phosphorylated hSLAP2 (pSLAP2) for both WT and mutants. Reagents were thawed and reactions prepared on ice. CBL and SLAP2 were mixed in PBS (with 5 mM βME, 5 mM caproic acid, 0.5 mM PMSF, and 0.5 mM Na3VO4) at rt for 5-10 min before addition of master mix (42 pmol E1 (UBE1, Boston Biochem or Ubiquitin-Proteasome Biotechnologies), 0.1 µmol E2 (UbcH5b/UBE2D2, Boston Biochem #E2-622), […], and 11.6 µmol ubiquitin (Boston Biochem #U-100H) in reaction buffer (0.2 M Tris pH 7.5, 10 mM MgCl2, 2 mM DTT). Reactions were incubated at 30° C. shaking at 500-700 rpm for 60-110 minutes and terminated by addition of SDS 2X loading buffer and boiling for 5-10 minutes. Equal volumes of each reaction were loaded on 12.5% SDS-PAGE gel, transferred to PVDF membrane, and immunoblotted for ubiquitin as per standard protocols (anti-ubiquitin antibody P4G7, BioLegend #838701, 1:1000; anti-mouse IgG HRP-linked antibody, Cell Signaling Technology #7076, 1:10000; Western Lightning Plus ECL, Perkin Elmer).

CBL TKBD [2] = assay: Co-purification of CBL TKBD with Trx-His-SLAP2/SLAP (Duet co-expression, Ni-NTA, SDS-PAGE); format: binding; details: low salt concentration (0.15 M NaCl)
Source text: (§1) To validate the CBL/SLAP2 binding interface, a series of mutants in a Duet co-expression vector system was generated for co-purification trials. The SLAP2 sequence was preceded by thioredoxin (Trx) and His-tag fusion proteins to allow co-purification of CBL TKBD that was bound to Trx-His-SLAP2 during the initial affinity chromatography purification step. Surface residues deemed to be important to the CBL/SLAP2 interface, but not CBL function or folding, were mutated to disrupt CBL/SLAP2 binding (FIG. 5C and FIG. 6). In our structure, SLAP2 Gly240 locates close to CBL Met269 and Ala270, such that mutation to a bulky Arg residue (G240R) could cause sterical constraints. Similarly, SLAP2 Leu241 is situated in a hydrophobic cleft composed of CBL Ala223, Trp258, and Val263; mutation to Arg (L241R) was predicted to disturb this binding pocket. Mutation of CBL Ala223 to Arg (A223R) would likewise disrupt this pocket, with CBL/SLAP2 double mutant A223R/L241R predicted to drastically disturb binding through sterical constraints and charge repulsion. (For clarity, CBL mutations herein are indicated in italics, SLAP2 in regular font.) Similarly, single or double mutation of CBL Ser226 or SLAP2 Ser244, whose side chain hydroxyl groups are in close proximity to one another, to charged Glu residues (S226E and S244E) was anticipated to interfere with CBL/SLAP2 binding. Finally, given that SLAP2 binds CBL as an α-helix, mutation of Leu245, located in the center of this α-helix, to proline (L245P) was expected to interrupt the helical structure and thus prevent SLAP2 binding. […] However, double mutation of the CBL/SLAP2 interface (A223R/L241R and S226E/S244E; FIG. 5D, lower panel) was not tolerated, even at low salt concentration.
(§2) For co-purification of CBL and SLAP2/SLAP, Duet-His-hSLAP2-CBL 29-261 Δ198-229 and 29-254 Δ198-229, Duet-His-Δlinker-hSLAP2-CBL WT and point mutants, and Duet-His-mSLAP-CBL WT and point mutants were overexpressed in E. coli BL-21 as above or TKB1 competent cells (Stratagene) as per manufacturer’s instructions, and cells harvested as above (except 100 mL of LB, overnight at 16-18° C., and 0.35-0.5 mM IPTG induction). Cell pellets were resuspended in either high or low salt (as for high salt except 25 mM HEPEs pH 7.5, 150 mM NaCl) lysis buffer and purified as above on Ni-NTA agarose (Qiagen) with wash buffer (25 mM HEPEs pH 7.5, 150 mM NaCl, 2% glycerol, 20 mM imidazole, 10 mM βME). Bead slurry was mixed with SDS 2X loading buffer (125 mM Tris pH 6.8, 4% SDS, 20% glycerol, 0.715 M βME, bromophenol blue), boiled, and analyzed by 10 or 12.5% SDS-PAGE, stained with Coomassie blue.

CBL TKBD [3] = target: T2, CBL TKBD; assay: as above; format: binding; details: conditions where SLAP2 was tyrosine phosphorylated (TKB1), low salt
Source text: as §1, §2

CBL TKBD co-purification (CBL TKBD [3]) | Molecule | stimulation/activation of CBL ubiquitination activity by SLAP2 mutants versus WT [1] | CBL TKBD co-purification (CBL TKBD [2])
 | Phosphorylated SLAP2 L241R: phosphorylated SLAP2 point mutant L241R at CBL/SLAP2 interface (protein, UniProt Q9H6Q3 2-261, looked up, variant L241R, tyrosine phosphorylated, phosphorylated SLAP2 point mutant L241R at CBL/SLAP2 interface) Src-like-adapter 2: GSLPSRRKSLPSPSLSSSVQGQGPVTMEAERSKATAVALGSFPAGGPAELSLRLGEPLTIVSEDGDWWTVLSEVSGREYNIPSVHVAKVSHGWLYEGLSREKAEELLLLPGNPGGAFLIRESQTRRGSYSLSVRLSRPASWDRIRHYRIHCLDNGWLYISPRLTFPSLQALVDHYSELADDICCLLKEPCVLQRAGPLPGKDIPLPVTVQRTPLNWKELDSSLLFSEAATGEESLLSEGRRESLSFYISLNDEAVSLDDA | reduced stimulation of CBL ubiquitination activity compared to pSLAP2 WT | 
 | Phosphorylated SLAP2 S244E: phosphorylated SLAP2 point mutant S244E at CBL/SLAP2 interface (protein, UniProt Q9H6Q3 2-261, looked up, variant S244E, phosphorylated, phosphorylated SLAP2 point mutant S244E at CBL/SLAP2 interface) Src-like-adapter 2: GSLPSRRKSLPSPSLSSSVQGQGPVTMEAERSKATAVALGSFPAGGPAELSLRLGEPLTIVSEDGDWWTVLSEVSGREYNIPSVHVAKVSHGWLYEGLSREKAEELLLLPGNPGGAFLIRESQTRRGSYSLSVRLSRPASWDRIRHYRIHCLDNGWLYISPRLTFPSLQALVDHYSELADDICCLLKEPCVLQRAGPLPGKDIPLPVTVQRTPLNWKELDSSLLFSEAATGEESLLSEGLREELSFYISLNDEAVSLDDA | less stimulation of CBL ubiquitination activity than pSLAP2 WT | 
 | SLAP2 R242A: SLAP2 mutant in the SLAP2/SLAP2 interface (protein, left off: large carriers; small tags and cut ends, SLAP2 mutant in the SLAP2/SLAP2 interface) EAERSKATAVALGSFPAGGPAELSLRLGEPLTIVSEDGDWWTVLSEVSGREYNIPSVHVAKVSHGWLYEGLSREKAEELLLLPGNPGGAFLIRESQTRRGSYSLSVRLSRPASWDRIRHYRIHCLDNGWLYISPRLTFPSLQALVDHYSELADDICCLLKEPCVLQRAGPLPGKDIPLPVTVQRTPLNWKELDSSLLFSEAATGEESLLSEGLAESLSFYISLNDEAVSLDDA | did not alter SLAP2 or pSLAP2 activation of CBL | did not significantly impact co-purification of CBL
 | SLAP2 I249W: SLAP2 mutant in the SLAP2/SLAP2 interface (protein, left off: large carriers; small tags and cut ends, SLAP2 mutant in the SLAP2/SLAP2 interface) EAERSKATAVALGSFPAGGPAELSLRLGEPLTIVSEDGDWWTVLSEVSGREYNIPSVHVAKVSHGWLYEGLSREKAEELLLLPGNPGGAFLIRESQTRRGSYSLSVRLSRPASWDRIRHYRIHCLDNGWLYISPRLTFPSLQALVDHYSELADDICCLLKEPCVLQRAGPLPGKDIPLPVTVQRTPLNWKELDSSLLFSEAATGEESLLSEGLRESLSFYWSLNDEAVSLDDA | did not alter SLAP2 or pSLAP2 activation of CBL | did not significantly impact co-purification of CBL
 | SLAP2 S246/250E: SLAP2 double mutant in the SLAP2/SLAP2 interface (protein, left off: large carriers; small tags and cut ends, SLAP2 double mutant in the SLAP2/SLAP2 interface) EAERSKATAVALGSFPAGGPAELSLRLGEPLTIVSEDGDWWTVLSEVSGREYNIPSVHVAKVSHGWLYEGLSREKAEELLLLPGNPGGAFLIRESQTRRGSYSLSVRLSRPASWDRIRHYRIHCLDNGWLYISPRLTFPSLQALVDHYSELADDICCLLKEPCVLQRAGPLPGKDIPLPVTVQRTPLNWKELDSSLLFSEAATGEESLLSEGLRESLEFYIELNDEAVSLDDA | did not alter SLAP2 or pSLAP2 activation of CBL | did not significantly impact co-purification of CBL
co-purified | SLAP2 Y248F: SLAP2 Tyr248 to Phe mutant, expressed under phosphorylating conditions (protein, left off: large carriers; small tags and cut ends, SLAP2 Tyr248 to Phe mutant, expressed under phosphorylating conditions) EAERSKATAVALGSFPAGGPAELSLRLGEPLTIVSEDGDWWTVLSEVSGREYNIPSVHVAKVSHGWLYEGLSREKAEELLLLPGNPGGAFLIRESQTRRGSYSLSVRLSRPASWDRIRHYRIHCLDNGWLYISPRLTFPSLQALVDHYSELADDICCLLKEPCVLQRAGPLPGKDIPLPVTVQRTPLNWKELDSSLLFSEAATGEESLLSEGLRESLSFFISLNDEAVSLDDA |  | 
